{"source": "patent US20240352121A1", "about": "“LAIR-1 AGONISTIC ANTIBODIES AND METHODS OF USE THEREOF” (NEXTCURE, INC., priority 2023, published 2024)", "molecules": {"B1": {"name": "LAIR-1 mAb: humanized agonist anti-LAIR-1 mAb, IgG1 backbone; h11B3 VL-2 (SEQ ID NO: 16), h11B3 VH-3 (SEQ ID NO: 27) (antibody, V domains shown)", "sequence (as listed by the source)": "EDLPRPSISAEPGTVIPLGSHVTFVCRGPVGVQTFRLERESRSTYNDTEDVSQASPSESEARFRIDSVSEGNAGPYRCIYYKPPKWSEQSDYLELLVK", "VH": "EVQLVESGGGLVQPGGSLKLSCAASGFTFNTNAMYWVRQAPGKGLEWVGRIRSKSSNYATYYAASVKGRFTISRDDSKNTLYLQMNSLKTEDTAVYYCVRGGSGFFAYWGQGTLVTVSS", "VL": "DIQMTQSPSSLSASLGDRVTITCKASEDIYIRLAWYQQKPGKAPRLLISTATSLETGVPSRFSGSGSGTDYTFTISSLQPEDIATYYCQQYWSTPYTFGGGTRLEIK", "modifications": "IgG1 constant regions; Synthetic: h11B3 VH-3; Synthetic: h11B3 VL-2"}}, "key": {"[1]": {"test_system": "SHP-1", "test": "SHP-1 phosphorylation in primary patient AML blasts (Western blot)", "format": "cell-based, human", "procedure": "FIGS. 4A-4O show the collagen matrix is vital to LAIR-1 induced AML cell death. (FIGS. 4A-C). Flow cytometry quantification of primary live, dead, or apoptotic total blood leukocytes after ex vivo treatment with 10 μg/mL IgG isotype control (gray) or LAIR-1 mAb (red) in the presence (FIG. 4A) or absence (FIG. 4B) of exogenous collagen, or (FIG. 4C), CD451^Lo SSC^Lo blast cells in the presence of isotype control or LAIR-1 mAb. N=3 technical replicates. […] Each dot represents an individual donor. Red shading highlights surface expression >20000 arbitrary units. Blue shading highlights expression <20000 units. Line represents simple linear regression. […] N=4-7 donors. […] Mean pixel density from Western blotting normalized to isotype control condition and graphed relative to total SHP-1. N=3 technical replicates. […] FIGS. 4M and 4N) 4E-BP1 expression as measured by Lumit assay (FIG. 4M) or cleaved caspase-7 as measured by Western blot (FIG. 4N) of cells treated as shown in FIGS. 4I-4K. […] P values calculated by Student's t test. […]\nFor assessment of signaling in healthy cells, human monocytes were isolated from PBMCs from two donors using a StemCell monocyte isolation kit (StemCell, Vancouver, BC). […] Data were quantified using FIJI (NIH, MD)."}, "[2]": {"test_system": "LAIR-1", "test": "Ligand (collagen) mediated LAIR-1 signaling blockade in UT-140 reporter cells", "format": "cell-based, human", "procedure": "FIGS. 24A-24C display h11B3 LAIR-1 mAbs, containing a variable light chain of SEQ ID NO: 16 and a variable heavy chain of SEQ ID NO:27, binds LAIR-1 and blocks its functional signaling triggered by collagen-I in UT-140 reporter cells. Seed 1e4 UT140 reporter cells/100 μl in 96-well flat bottom plate. LAIR1 signaling was induced by 10 μg/ml coated collagen treatment. Blocking of LAIR1 signaling by such h11B3 LAIR-1 mAbs was determined by addition of different concentrations of such h11B3 LAIR-1 mAbs in 100 μL per well. Cultures were maintained for 20 hours, and the GFP was read on flow cytometry.\nFIGS. 25A-25B display h11B3 LAIR-1 mAbs, containing a variable light chain of SEQ ID NO: 16 and a variable heavy chain of SEQ ID NO:27, blocks collagen-1 signaling. […] Reporter activation was quantified by flow cytometry. […]\nFor cell binding assays, 5e4 UT-140 cells or mouse LAIR-1-transfected 293T cells per well were plated in 200 μL PBS in a 96-well round bottom plate, centrifuged for 4 minutes at 500×g for a single wash, and blocked for 10 minutes on ice with flow cytometry buffer (PBS+2% FBS+0.1 mM EDTA) containing 1:50 dilution of TruStain™ Fc block (Biolegend, San Diego, CA). […] Cells were then washed 3 times as previously described and binding was measured by flow cytometry using an Attune NXT flow cytometer. […] GFP expression was measured by flow cytometry using an Attune NXT Flow Cytometer."}}}
{"molecule": "B1", "values": [{"measurement": "increase of SHP-1 phosphorylation relative to control", "setting": "[1]; LAIR-1 mAb alone", "value": 25, "unit": "%"}, {"measurement": "increase of SHP-1 phosphorylation relative to control", "setting": "[1]; cotreatment with LAIR-1 mAb and collagen", "value": 50, "unit": "%"}, {"measurement": "collagen binding to LAIR-1", "setting": "[2]", "value": "blocks collagen binding"}]}
